Substitutions are numbered along the chain they refer to. Numbers in names are those of the source.
B1: AtHPPDm-F383Y-02: nucleotide sequence encoding Arabidopsis thaliana HPPD with F383Y; vector DBN11797 (nucleic acid)
DNA: ATGGGACATCAGAATGCTGCTGTATCAGAAAATCAAAATCATGATGATGGAGCCGCCTCCTCACCAGGGTTTAAGTTGGTTGGGTTCTCCAAGTTTGTACGGAAGAACCCAAAATCCGACAAGTTCAAGGTTAAACGCTTCCACCACATTGAATTCTGGTGCGGCGACGCCACCAATGTTGCTCGGCGTTTTTCATGGGGTTTAGGCATGAGATTCTCAGCAAAGAGTGACCTGAGCACCGGCAACATGGTTCATGCTAGCTATCTCTTAACATCTGGAGATTTGAGGTTTCTTTTCACGGCGCCGTACTCACCATCACTCTCCGCCGGCGAGATCAAACCCACCACGACTGCAAGCATACCTTCATTTGATCATGGTAGTTGCAGATCCTTCTTCTCGTCGCACGGCCTAGGGGTGCGCGCGGTCGCCATCGAAGTTGAAGATGCAGAATCAGCGTTTAGTATCAGCGTGGCAAATGGAGCTATTCCTTCCTCCCCTCCAATTGTCCTCAATGAGGCTGTAACTATTGCCGAGGTGAAGTTGTATGGAGATGTTGTGCTGAGATATGTTTCTTACAAGGCAGAGGACACTGAGAAATCTGAATTTTTGCCTGGTTTTGAAAGGGTCGAGGATGCTTCAAGTTTTCCTCTTGATTACGGCATACGACGGTTGGATCACGCGGTTGGAAATGTACCAGAACTTGGGCCGGCGCTCACTTATGTGGCTGGTTTCACTGGATTCCATCAATTTGCTGAGTTCACAGCTGATGATGTTGGGACTGCTGAAAGTGGGTTGAACTCTGCAGTCCTCGCCTCTAATGATGAAATGGTGCTCCTCCCGATCAACGAGCCTGTGCATGGCACCAAAAGGAAATCACAAATACAGACATATCTTGAGCACAATGAAGGTGCAGGGCTTCAACATCTTGCACTGATGTCTGAAGACATTTTCCGTACGCTGAGAGAGATGAGGAAGAGAAGTAGTATTGGTGGATTTGACTTCATGCCTTCTCCCCCACCAACTTACTACCAGAACTTGAAGAAGAGGGTTGGTGATGTGCTATCTGATGACCAGATCAAGGAGTGTGAAGAATTGGGCATTCTTGTTGATCGGGACGACCAAGGAACATTACTGCAGATATTTACAAAACCACTTGGTGACCGCCCCACTATTTATATTGAGATCATACAAAGAGTCGGCTGCATGATGAAGGATGAGGAAGGAAAAGCATATCAATCTGGTGGTTGTGGCGGCTTTGGGAAAGGAAACTTCTCTGAGCTGTTCAAATCCATCGAGGAGTATGAGAAGACCTTGGAGGCCAAGCAGCTCGTGGGTTGA
modifications: AtHPPDm-F383Y-02 Nucleotide Sequence
notes: vector DBN11797
B2: AtHPPDm-F372A-F383Y-02: nucleotide sequence encoding Arabidopsis thaliana HPPD with F372A+F383Y; vector DBN11798 (nucleic acid)
DNA: B1 DNA with T1141G, T1142C, T1143C
modifications: AtHPPDm-F372A-F383Y-02 Nucleotide Sequence
notes: vector DBN11798

Legend:
Type in all cases: in vivo
[1] = test system: Arabidopsis thaliana T1 plants; test: Topramezone tolerance of transgenic Arabidopsis thaliana T1 plants (spray, bleached leaf area grade, damage score); details: Table 13; for Classification and statistics of the grade of pesticide damage Grade 0: number of plants at grade 0; for Classification and statistics of the grade of pesticide damage Grade 1: number of plants at grade 1; for Classification and statistics of the grade of pesticide damage Grade 2: number of plants at grade 2; for Classification and statistics of the grade of pesticide damage Grade 3: number of plants at grade 3; for Scores: pesticide damage score
Procedure, shortened: (§1)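 Damage was assessed by bleaching grade (0 none; 1 <50%; 2 >50%; 3 100% of leaf area) one week after spraying. Sprays on 18-day-old T1 and wild-type plants used field-rate multiples: topramezone 25–200, isoxaflutole 35–280, mesotrione 52.5–420 g ai/ha.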

[2] = test system: Arabidopsis thaliana T1 plants; test: Isoxaflutole tolerance of transgenic Arabidopsis thaliana T1 plants (spray, bleached leaf area grade, damage score); details: for Classification and statistics of the grade of pesticide damage Grade 0 / Classification and statistics of the grade of pesticide damage Grade 1 / Classification and statistics of the grade of pesticide damage Grade 2 / Classification and statistics of the grade of pesticide damage Grade 3: number of plants in grade;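 for Scores: Weighted damage index from 0 to 100 where higher means more damage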
Procedure, shortened: as §1

[3] = test system: Arabidopsis thaliana T1 plants; test: Mesotrione tolerance of transgenic Arabidopsis thaliana T1 plants (spray, bleached leaf area grade, damage score); design: Scores: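 damage score 0-100 computed as Σ(N×S)/(T×M)×100 over grades 0-3 with higher meaning more damage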; details: for Classification and statistics of the grade of pesticide damage Grade 0 / Classification and statistics of the grade of pesticide damage Grade 1 / Classification and statistics of the grade of pesticide damage Grade 2 / Classification and statistics of the grade of pesticide damage Grade 3: number of plants in grade
Procedure, shortened: as §1

| Molecule | Resistance evaluation ([1]; topramezone 25 g ai/ha (1×)) | Classification and statistics of the grade of pesticide damage Grade 0 ([1]; topramezone 25 g ai/ha (1×)) | Classification and statistics of the grade of pesticide damage Grade 1 ([1]; topramezone 25 g ai/ha (1×)) | Classification and statistics of the grade of pesticide damage Grade 2 ([1]; topramezone 25 g ai/ha (1×)) | Classification and statistics of the grade of pesticide damage Grade 3 ([1]; topramezone 25 g ai/ha (1×)) | Scores ([1]; topramezone 25 g ai/ha (1×)) | Resistance evaluation ([1]; topramezone 100 g ai/ha (4×)) | Classification and statistics of the grade of pesticide damage Grade 0 ([1]; topramezone 100 g ai/ha (4×)) | Classification and statistics of the grade of pesticide damage Grade 1 ([1]; topramezone 100 g ai/ha (4×)) | Classification and statistics of the grade of pesticide damage Grade 2 ([1]; topramezone 100 g ai/ha (4×)) | Classification and statistics of the grade of pesticide damage Grade 3 ([1]; topramezone 100 g ai/ha (4×)) | Scores ([1]; topramezone 100 g ai/ha (4×)) | Resistance evaluation ([2]; isoxaflutole 35 g ai/ha) | Scores ([2]; isoxaflutole 35 g ai/ha) | Classification and statistics of the grade of pesticide damage Grade 0 ([2]; isoxaflutole 35 g ai/ha) | Classification and statistics of the grade of pesticide damage Grade 1 ([2]; isoxaflutole 35 g ai/ha) | Classification and statistics of the grade of pesticide damage Grade 2 ([2]; isoxaflutole 35 g ai/ha) | Classification and statistics of the grade of pesticide damage Grade 3 ([2]; isoxaflutole 35 g ai/ha) | Resistance evaluation ([2]; isoxaflutole 70 g ai/ha) | Scores ([2]; isoxaflutole 70 g ai/ha) | other results |
| --- | --- | --- | --- | --- | --- | --- | --- | --- | --- | --- | --- | --- | --- | --- | --- | --- | --- | --- | --- | --- | --- |
| B1 | Non-resistant | 0 | 0 | 0 | 16 | 100 | Non-resistant | 0 | 0 | 0 | 16 | 100 | Non-resistant | 100 | 0 | 0 | 0 | 16 | Non-resistant | 100 | Classification and statistics of the grade of pesticide damage Grade 0 ([2]; isoxaflutole 70 g ai/ha): 0; Classification and statistics of the grade of pesticide damage Grade 1 ([2]; isoxaflutole 70 g ai/ha): 0; Classification and statistics of the grade of pesticide damage Grade 2 ([2]; isoxaflutole 70 g ai/ha): 0; Classification and statistics of the grade of pesticide damage Grade 3 ([2]; isoxaflutole 70 g ai/ha): 16; Resistance evaluation ([3]; mesotrione 52.5 g ai/ha): Non-resistant; Scores ([3]; mesotrione 52.5 g ai/ha): 100; Classification and statistics of the grade of pesticide damage Grade 0 ([3]; mesotrione 52.5 g ai/ha): 0; Classification and statistics of the grade of pesticide damage Grade 1 ([3]; mesotrione 52.5 g ai/ha): 0; Classification and statistics of the grade of pesticide damage Grade 2 ([3]; mesotrione 52.5 g ai/ha): 0; Classification and statistics of the grade of pesticide damage Grade 3 ([3]; mesotrione 52.5 g ai/ha): 16; Resistance evaluation ([3]; mesotrione 105 g ai/ha): Non-resistant; Scores ([3]; mesotrione 105 g ai/ha): 100; Classification and statistics of the grade of pesticide damage Grade 0 ([3]; mesotrione 105 g ai/ha): 0; Classification and statistics of the grade of pesticide damage Grade 1 ([3]; mesotrione 105 g ai/ha): 0; Classification and statistics of the grade of pesticide damage Grade 2 ([3]; mesotrione 105 g ai/ha): 0; Classification and statistics of the grade of pesticide damage Grade 3 ([3]; mesotrione 105 g ai/ha): 16 |
| B2 | Poorly | 4 | 4 | 8 | 0 | 42 | Non-resistant | 0 | 0 | 4 | 12 | 92 | Poorly | 56 | 0 | 9 | 3 | 4 | Non-resistant | 100 | Classification and statistics of the grade of pesticide damage Grade 0 ([2]; isoxaflutole 70 g ai/ha): 0; Classification and statistics of the grade of pesticide damage Grade 1 ([2]; isoxaflutole 70 g ai/ha): 0; Classification and statistics of the grade of pesticide damage Grade 2 ([2]; isoxaflutole 70 g ai/ha): 0; Classification and statistics of the grade of pesticide damage Grade 3 ([2]; isoxaflutole 70 g ai/ha): 16; Resistance evaluation ([3]; mesotrione 52.5 g ai/ha): Poorly resistant; Scores ([3]; mesotrione 52.5 g ai/ha): 63; Classification and statistics of the grade of pesticide damage Grade 0 ([3]; mesotrione 52.5 g ai/ha): 0; Classification and statistics of the grade of pesticide damage Grade 1 ([3]; mesotrione 52.5 g ai/ha): 5; Classification and statistics of the grade of pesticide damage Grade 2 ([3]; mesotrione 52.5 g ai/ha): 8; Classification and statistics of the grade of pesticide damage Grade 3 ([3]; mesotrione 52.5 g ai/ha): 3; Resistance evaluation ([3]; mesotrione 105 g ai/ha): Non-resistant; Scores ([3]; mesotrione 105 g ai/ha): 100; Classification and statistics of the grade of pesticide damage Grade 0 ([3]; mesotrione 105 g ai/ha): 0; Classification and statistics of the grade of pesticide damage Grade 1 ([3]; mesotrione 105 g ai/ha): 0; Classification and statistics of the grade of pesticide damage Grade 2 ([3]; mesotrione 105 g ai/ha): 0; Classification and statistics of the grade of pesticide damage Grade 3 ([3]; mesotrione 105 g ai/ha): 16 |

Source: patent publication US20250043302A1, “MUTATED HYDROXYPHENYLPYRUVATE DIOXYGENASE POLYPEPTIDE, AND CODING GENE AND USE THEREOF” (BEIJING DABEINONG BIOTECHNOLOGY CO., LTD., priority 2021, published 2025)
